B1: Membrane protein MLC1 (Homo sapiens), Q15049 (parent)
chain: MTQEPFREELAYDRMPTLERGRQDPASYAPDAKPSDLQLSKRLPPCFSHKTWVFSVLMGSCLLVTSGFSLYLGNVFPAEMDYLRCAAGSCIPSAIVSFTVSRRNANVIPNFQILFVSTFAVTTTCLIWFGCKLVLNPSAININFNLILLLLLELLMAATVIIAARSSEEDCKKKKGSMSDSANILDEVPFPARVLKSYSVVEVIAGISAVLGGIIALNVDDSVSGPHLSVTFFWILVACFPSAIASHVAAECPSKCLVEVLIAISSLTSPLLFTASGYLSFSIMRIVEMFKDYPPAIKPSYDVLLLLLLLVLLLQAGLNTGTAIQCVRFKVSARLQGASWDTQNGPQERLAGEVARSPLKEFDKEKAWRAVVVQMAQ

Variants of: B1
Conditions: with at1b1_human ATP1B1, P05026

effect of a mutation on the interaction | Variant
disrupting interaction | C125R
disrupting interaction | S280L

Variants of: B1
Conditions: with at1b1_human ATP1B1, P05026
Remark: another data set of the same source

effect of a mutation on the interaction | Variant
decreasing interaction | S280L
decreasing interaction | S246R

— IntAct's records for PubMed 22328087
